Test results as given in PMC3332083 (Biochemistry, 2012).

B1: Serum amyloid A isoform SAA2.2 from the CE/J mouse strain, full-length (103 amino acids) (natural protein, mouse (CE/J strain), UniProt P05367 20-122, looked up)
chain: GFFSFVHEAFLGAGDMWRAYTDMKEAGWKDGDKYFHARGNYDAAQRGPGGVWAAEKISDGREAFQEFFGRGHEDTMADQEANRHGRSGKDPNYYRPPGLPDKY
B2: Carboxy-terminal truncated SAA2.2 (SAA2.2ΔC), truncated after the ninetieth amino acid residue (domain or fragment, mouse (CE/J strain), UniProt P05367 20-109, looked up)
chain: GFFSFVHEAFLGAGDMWRAYTDMKEAGWKDGDKYFHARGNYDAAQRGPGGVWAAEKISDGREAFQEFFGRGHEDTMADQEANRHGRSGKD

Assays:
SEC = target: the molecule itself; assay: SEC
dynamic light scattering = target: the molecule itself; assay: dynamic light scattering

Row | Protein | stoichiometry N (SEC) | stoichiometry N (dynamic light scattering)
1 | B1 | 8 subunits | 
2 | B2 |  | 70 to 170 subunits
